The assay has as its target Flag-HA-SBP-SMG6 (human, UniProt Q86US8 1-1419). Put plainly: pull-down.

From PMC4132754 (Nucleic Acids Research, 2014) come the findings set out here.

Sequence of Flag-HA-SBP-SMG6 (Q86US8 whole entry): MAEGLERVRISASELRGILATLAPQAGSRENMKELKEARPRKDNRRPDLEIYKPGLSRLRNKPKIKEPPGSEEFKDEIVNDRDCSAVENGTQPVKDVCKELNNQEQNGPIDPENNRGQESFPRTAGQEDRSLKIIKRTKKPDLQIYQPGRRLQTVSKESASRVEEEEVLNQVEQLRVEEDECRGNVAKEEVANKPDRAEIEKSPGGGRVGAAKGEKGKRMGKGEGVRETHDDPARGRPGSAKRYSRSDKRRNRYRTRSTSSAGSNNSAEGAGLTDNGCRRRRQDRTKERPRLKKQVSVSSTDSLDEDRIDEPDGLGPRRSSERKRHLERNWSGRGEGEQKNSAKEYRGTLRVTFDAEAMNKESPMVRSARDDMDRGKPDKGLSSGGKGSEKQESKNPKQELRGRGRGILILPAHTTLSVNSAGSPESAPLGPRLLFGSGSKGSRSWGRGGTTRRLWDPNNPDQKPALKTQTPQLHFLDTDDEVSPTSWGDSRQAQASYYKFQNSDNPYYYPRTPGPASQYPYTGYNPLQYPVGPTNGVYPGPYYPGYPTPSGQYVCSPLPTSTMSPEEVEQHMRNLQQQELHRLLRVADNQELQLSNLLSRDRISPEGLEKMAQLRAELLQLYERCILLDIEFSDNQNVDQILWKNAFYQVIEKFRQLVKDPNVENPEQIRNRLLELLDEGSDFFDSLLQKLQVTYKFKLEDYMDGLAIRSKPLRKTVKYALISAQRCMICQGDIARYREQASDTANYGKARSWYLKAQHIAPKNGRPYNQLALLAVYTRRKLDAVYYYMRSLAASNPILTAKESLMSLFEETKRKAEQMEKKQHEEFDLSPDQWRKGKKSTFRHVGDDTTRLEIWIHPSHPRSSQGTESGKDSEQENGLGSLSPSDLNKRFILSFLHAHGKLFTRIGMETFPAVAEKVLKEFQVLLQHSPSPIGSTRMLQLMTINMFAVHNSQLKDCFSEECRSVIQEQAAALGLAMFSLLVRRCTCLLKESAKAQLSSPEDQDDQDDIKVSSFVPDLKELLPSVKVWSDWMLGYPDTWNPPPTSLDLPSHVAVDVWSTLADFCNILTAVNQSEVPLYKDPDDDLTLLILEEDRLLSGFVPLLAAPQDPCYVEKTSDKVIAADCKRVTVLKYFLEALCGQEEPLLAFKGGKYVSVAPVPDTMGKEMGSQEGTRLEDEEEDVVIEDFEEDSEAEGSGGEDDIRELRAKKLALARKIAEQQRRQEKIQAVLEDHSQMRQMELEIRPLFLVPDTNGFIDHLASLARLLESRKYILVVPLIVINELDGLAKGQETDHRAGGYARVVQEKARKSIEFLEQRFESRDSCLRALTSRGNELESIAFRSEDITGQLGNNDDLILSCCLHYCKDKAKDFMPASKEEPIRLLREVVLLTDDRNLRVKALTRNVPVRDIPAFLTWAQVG

B1: SBP-UPF1 ΔStalkΔSQ1 (domain or fragment)
chain: MSVEAYGPSSQTLTFLDTEEAELLGADTQGSEFEFTDFTLPSQTQTPPGGPGGPGGGGAGGPGGAGAGAAAGQLDAQVGPEGILQNGAVDDSVAKTSQLLAELNFEEDEEDTYYTKDLPIHACSYCGIHDPACVVYCNTSKKWFCNGRGNTSGSHIVNHLVRAKCKEVTLHKDGPLGETVLECYNCGCRNVFLLGFIPAKADSVVVLLCRQPCASQSSLKDINWDSSQWQPLIQDRCFLSWLVKIPSEQEQLRARQITAQQINKLEELWKETSVSGYIYHKLLGHEVEDVIIKCQLPKRFTAQGLPDLNHSQVYAVKTVLQRPLSLIQGPPGTGKTVTSATIVYHLARQGNGPVLVCAPSNIAVDQLTEKIHQTGLKVVRLCAKSREAIDSPVSFLALHNQIRNMDSMPELQKLQQLKDETGELSSADEKRYRALKRTAERELLMNADVICCTCVGAGDPRLAKMQFRSILIDESTQATEPECMVPVVLGAKQLILVGDHCQLGPVVMCKKAAKAGLSQSLFERLVVLGIRPIRLQVQYRMHPALSAFPSNIFYEGSLQNGVTAADRVKKGFDFQWPQPDKPMFFYVTQGQEEIASSGTSYLNRTEAANVEKITTKLLKAGAKPDQIGIITPYEGQRSYLVQYMQFSGSLHTKLYQEVEIASVDAFQGREKDFIILSCVRANEHQGIGFLNDPRRLNVALTRARYGVIIVGNPKALSKQPLWNHLLNYYKEQKVLVEGPLNNLRESLMQFSKPRKLVNTINPGARFMTTAMYDAREAIIPGSVYDRSSQGRPSSMYFQTHDQIGMISAGPSHVAAMNIPIPFNLVMPPMPPPGYFGQANGPAAGRGTPKGKTGRGG
B1: the binding result is on record as “binds”.

B2: SBP-UPF1 WT (natural protein)
chain: MSVEAYGPSSQTLTFLDTEEAELLGADTQGSEFEFTDFTLPSQTQTPPGGPGGPGGGGAGGPGGAGAGAAAGQLDAQVGPEGILQNGAVDDSVAKTSQLLAELNFEEDEEDTYYTKDLPIHACSYCGIHDPACVVYCNTSKKWFCNGRGNTSGSHIVNHLVRAKCKEVTLHKDGPLGETVLECYNCGCRNVFLLGFIPAKADSVVVLLCRQPCASQSSLKDINWDSSQWQPLIQDRCFLSWLVKIPSEQEQLRARQITAQQINKLEELWKENPSATLEDLEKPGVDEEPQHVLLRYEDAYQYQNIFGPLVKLEADYDKKLKESQTQDNITVRWDLGLNKKRIAYFTLPKTDSDMRLMQGDEICLRYKGDLAPLWKGIGHVIKVPDNYGDEIAIELRSSVGAPVEVTHNFQVDFVWKSTSFDRMQSALKTFAVDETSVSGYIYHKLLGHEVEDVIIKCQLPKRFTAQGLPDLNHSQVYAVKTVLQRPLSLIQGPPGTGKTVTSATIVYHLARQGNGPVLVCAPSNIAVDQLTEKIHQTGLKVVRLCAKSREAIDSPVSFLALHNQIRNMDSMPELQKLQQLKDETGELSSADEKRYRALKRTAERELLMNADVICCTCVGAGDPRLAKMQFRSILIDESTQATEPECMVPVVLGAKQLILVGDHCQLGPVVMCKKAAKAGLSQSLFERLVVLGIRPIRLQVQYRMHPALSAFPSNIFYEGSLQNGVTAADRVKKGFDFQWPQPDKPMFFYVTQGQEEIASSGTSYLNRTEAANVEKITTKLLKAGAKPDQIGIITPYEGQRSYLVQYMQFSGSLHTKLYQEVEIASVDAFQGREKDFIILSCVRANEHQGIGFLNDPRRLNVALTRARYGVIIVGNPKALSKQPLWNHLLNYYKEQKVLVEGPLNNLRESLMQFSKPRKLVNTINPGARFMTTAMYDAREAIIPGSVYDRSSQGRPSSMYFQTHDQIGMISAGPSHVAAMNIPIPFNLVMPPMPPPGYFGQANGPAAGRGTPKGKTGRGGRQKNRFGLPGPSQTNLPNSQASQDVASQPFSQGALTQGYISMSQPSQMSQPGLSQPELSQDSYLGDEFKSQIDVALSQDSTYQGERAYQHGGVTGLSQY
As to B2, the binding result was “binds”.

B3: SBP-UPF1 Δ1C (natural protein)
chain: MSVEAYGPSSQTLTFLDTEEAELLGADTQGSEFEFTDFTLPSQTQTPPGGPGGPGGGGAGGPGGAGAGAAAGQLDAQVGPEGILQNGAVDDSVAKTSQLLAELNFEEDEEDTYYTKDLPIHACSYCGIHDPACVVYCNTSKKWFCNGRGNTSGSHIVNHLVRAKCKEVTLHKDGPLGETVLECYNCGCRNVFLLGFIPAKADSVVVLLCRQPCASQSSLKDINWDSSQWQPLIQDRCFLSWLVKIPSEQEQLRARQITAQQINKLEELWKENPSATLEDLEKPGVDEEPQHVLLRYEDAYQYQNIFGPLVKLEADYDKKLKESQTQDNITVRWDLGLNKKRIAYFTLPKTDSDMRLMQGDEICLRYKGDLAPLWKGIGHVIKVPDNYGDEIAIELRSSVGAPVEVTHNFQVDFVWKSTSFDRMQSALKTFAVDETSVSGYIYHKLLGHEVEDVIIKCQLPKRFTAQGLPDLNHSQVYAVKTVLQRPLSLIQGPPGTGKTVTSATIVYHLARQGNGPVLVCAPSNIAVDQLTEKIHQTGLKVVRLCAKSREAIDSPVSFLANADVICCTCVGAGDPRLAKMQFRSILIDESTQATEPECMVPVVLGAKQLILVGDHCQLGPVVMCKKAAKAGLSQSLFERLVVLGIRPIRLQVQYRMHPALSAFPSNIFYEGSLQNGVTAADRVKKGFDFQWPQPDKPMFFYVTQGQEEIASSGTSYLNRTEAANVEKITTKLLKAGAKPDQIGIITPYEGQRSYLVQYMQFSGSLHTKLYQEVEIASVDAFQGREKDFIILSCVRANEHQGIGFLNDPRRLNVALTRARYGVIIVGNPKALSKQPLWNHLLNYYKEQKVLVEGPLNNLRESLMQFSKPRKLVNTINPGARFMTTAMYDAREAIIPGSVYDRSSQGRPSSMYFQTHDQIGMISAGPSHVAAMNIPIPFNLVMPPMPPPGYFGQANGPAAGRGTPKGKTGRGGRQKNRFGLPGPSQTNLPNSQASQDVASQPFSQGALTQGYISMSQPSQMSQPGLSQPELSQDSYLGDEFKSQIDVALSQDSTYQGERAYQHGGVTGLSQY
For the molecule B3, the binding result is “binds”.
